Experimental data: the supplement of paper PMC11811203

B1: THAP1; numbered along this chain (parent)
chain: MVQSCSAYGCKNRYDKDKPVSFHKFPLTRPSLCKEWEAAVRRKNFKPTKYSSICSEHFTPDCFKRECNNKLLKENAVPTIFLCTEPHDKKEDLLEPQEQLPPPPLPPPVSQVDAAIGLLMPPLQTPVNLSVFCDHNYTVEDTMHQRKRIHQLEQQVEKLRKKLKTAQQRCRRQERQLEKLKEVVHFQKEKDDVSERGYVILPNDYFEIVEVPA

Variants of: B1
Test: THAP1 transcriptional activity (GFP+/GFP- enrichment relative to wild-type constructs) (ratio to WT); higher = more THAP1 activity (PSMB5 reporter activation)
Details: with PSMB5 promoter-GFP reporter
In short: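 A site-saturation library of human THAP1 (residues 2–213, each changed to all 20 amino acids) was transduced by lentivirus at MOI ~0.3, in duplicate, into THAP1-knockout HEK-293T cells carrying mClover3 knocked in at endogenous PSMB5. After five days, BFP+ cells were sorted into GFP-dim and GFP-bright bins, and variants were counted by Illumina sequencing of genomic DNA amplicons. Activity is the replicate-mean bright/dim read fold change divided by the mean of wild-type synonymous constructs.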

Row | Variant | THAP1 transcriptional activity
1 | MVQSCSAYGCKNRYDKDKPVSFHKFPLTRPSLCKEWEAAVRRKNFKPTKYSSICSEHFTPDMFKRECNNKLLKENAVPTIFLCTEPHDKKEDLLEPQEQLPPPPLPPPVSQVDAAIGLLMPPLQTPVNLSVFCDHNYTVEDTMHQRKRIHQLEQQVEKLRKKLKTAQQRCRRQERQLEKLKEVVHFQKEKDDVSERGYVILPNDYFEIVEVPA [C62M] | 0.591
2 | MVQSCSAYGCKNRYDKDKPVSFHKFPLTRPSLCKEWEAAVRRKNFKPTKYSSICSEHFTPDGFKRECNNKLLKENAVPTIFLCTEPHDKKEDLLEPQEQLPPPPLPPPVSQVDAAIGLLMPPLQTPVNLSVFCDHNYTVEDTMHQRKRIHQLEQQVEKLRKKLKTAQQRCRRQERQLEKLKEVVHFQKEKDDVSERGYVILPNDYFEIVEVPA [C62G] | 0.113
3 | MVQSCSAYGCKNRYDKDKPVSFHKFPLTRPSLCKEWEAAVRRKNFKPTKYSSICSEHFTPDPFKRECNNKLLKENAVPTIFLCTEPHDKKEDLLEPQEQLPPPPLPPPVSQVDAAIGLLMPPLQTPVNLSVFCDHNYTVEDTMHQRKRIHQLEQQVEKLRKKLKTAQQRCRRQERQLEKLKEVVHFQKEKDDVSERGYVILPNDYFEIVEVPA [C62P] | 0.0987
4 | MVQSCSAYGCKNRYDKDKPVSFHKFPLTRPSLCKEWEAAVRRKNFKPTKYSSICSEHFTPDNFKRECNNKLLKENAVPTIFLCTEPHDKKEDLLEPQEQLPPPPLPPPVSQVDAAIGLLMPPLQTPVNLSVFCDHNYTVEDTMHQRKRIHQLEQQVEKLRKKLKTAQQRCRRQERQLEKLKEVVHFQKEKDDVSERGYVILPNDYFEIVEVPA [C62N] | 0.487
5 | MVQSCSAYGCKNRYDKDKPVSFHKFPLTRPSLCKEWEAAVRRKNFKPTKYSSICSEHFTPDKFKRECNNKLLKENAVPTIFLCTEPHDKKEDLLEPQEQLPPPPLPPPVSQVDAAIGLLMPPLQTPVNLSVFCDHNYTVEDTMHQRKRIHQLEQQVEKLRKKLKTAQQRCRRQERQLEKLKEVVHFQKEKDDVSERGYVILPNDYFEIVEVPA [C62K] | 0.21
6 | MVQSCSAYGCKNRYDKDKPVSFHKFPLTRPSLCKEWEAAVRRKNFKPTKYSSICSEHFTPDDFKRECNNKLLKENAVPTIFLCTEPHDKKEDLLEPQEQLPPPPLPPPVSQVDAAIGLLMPPLQTPVNLSVFCDHNYTVEDTMHQRKRIHQLEQQVEKLRKKLKTAQQRCRRQERQLEKLKEVVHFQKEKDDVSERGYVILPNDYFEIVEVPA [C62D] | 1.01
7 | MVQSCSAYGCKNRYDKDKPVSFHKFPLTRPSLCKEWEAAVRRKNFKPTKYSSICSEHFTPDEFKRECNNKLLKENAVPTIFLCTEPHDKKEDLLEPQEQLPPPPLPPPVSQVDAAIGLLMPPLQTPVNLSVFCDHNYTVEDTMHQRKRIHQLEQQVEKLRKKLKTAQQRCRRQERQLEKLKEVVHFQKEKDDVSERGYVILPNDYFEIVEVPA [C62E] | 0.143
8 | MVQSCSAYGCKNRYDKDKPVSFHKFPLTRPSLCKEWEAAVRRKNFKPTKYSSICSEHFTPDAFKRECNNKLLKENAVPTIFLCTEPHDKKEDLLEPQEQLPPPPLPPPVSQVDAAIGLLMPPLQTPVNLSVFCDHNYTVEDTMHQRKRIHQLEQQVEKLRKKLKTAQQRCRRQERQLEKLKEVVHFQKEKDDVSERGYVILPNDYFEIVEVPA [C62A] | 0.523
9 | MVQSCSAYGCKNRYDKDKPVSFHKFPLTRPSLCKEWEAAVRRKNFKPTKYSSICSEHFTPDHFKRECNNKLLKENAVPTIFLCTEPHDKKEDLLEPQEQLPPPPLPPPVSQVDAAIGLLMPPLQTPVNLSVFCDHNYTVEDTMHQRKRIHQLEQQVEKLRKKLKTAQQRCRRQERQLEKLKEVVHFQKEKDDVSERGYVILPNDYFEIVEVPA [C62H] | 0.173
10 | MVQSCSAYGCKNRYDKDKPVSFHKFPLTRPSLCKEWEAAVRRKNFKPTKYSSICSEHFTPDIFKRECNNKLLKENAVPTIFLCTEPHDKKEDLLEPQEQLPPPPLPPPVSQVDAAIGLLMPPLQTPVNLSVFCDHNYTVEDTMHQRKRIHQLEQQVEKLRKKLKTAQQRCRRQERQLEKLKEVVHFQKEKDDVSERGYVILPNDYFEIVEVPA [C62I] | 0.09
11 | MVQSCSAYGCKNRYDKDKPVSFHKFPLTRPSLCKEWEAAVRRKNFKPTKYSSICSEHFTPDFFKRECNNKLLKENAVPTIFLCTEPHDKKEDLLEPQEQLPPPPLPPPVSQVDAAIGLLMPPLQTPVNLSVFCDHNYTVEDTMHQRKRIHQLEQQVEKLRKKLKTAQQRCRRQERQLEKLKEVVHFQKEKDDVSERGYVILPNDYFEIVEVPA [C62F] | 0.151
12 | MVQSCSAYGCKNRYDKDKPVSFHKFPLTRPSLCKEWEAAVRRKNFKPTKYSSICSEHFTPPCFKRECNNKLLKENAVPTIFLCTEPHDKKEDLLEPQEQLPPPPLPPPVSQVDAAIGLLMPPLQTPVNLSVFCDHNYTVEDTMHQRKRIHQLEQQVEKLRKKLKTAQQRCRRQERQLEKLKEVVHFQKEKDDVSERGYVILPNDYFEIVEVPA [D61P] | 0.104
13 | MVQSCSAYGCKNRYDKDKPVSFHKFPLTRPSLCKEWEAAVRRKNFKPTKYSSICSEHFTPNCFKRECNNKLLKENAVPTIFLCTEPHDKKEDLLEPQEQLPPPPLPPPVSQVDAAIGLLMPPLQTPVNLSVFCDHNYTVEDTMHQRKRIHQLEQQVEKLRKKLKTAQQRCRRQERQLEKLKEVVHFQKEKDDVSERGYVILPNDYFEIVEVPA [D61N] | 0.472
14 | MVQSCSAYGCKNRYDKDKPVSFHKFPLTRPSLCKEWEAAVRRKNFKPTKYSSICSEHFTPFCFKRECNNKLLKENAVPTIFLCTEPHDKKEDLLEPQEQLPPPPLPPPVSQVDAAIGLLMPPLQTPVNLSVFCDHNYTVEDTMHQRKRIHQLEQQVEKLRKKLKTAQQRCRRQERQLEKLKEVVHFQKEKDDVSERGYVILPNDYFEIVEVPA [D61F] | 0.173
15 | MVQSCSAYGCKNRYDKDKPVSFHKFPLTRPSLCKEWEAAVRRKNFKPTKYSSICSEHFTPMCFKRECNNKLLKENAVPTIFLCTEPHDKKEDLLEPQEQLPPPPLPPPVSQVDAAIGLLMPPLQTPVNLSVFCDHNYTVEDTMHQRKRIHQLEQQVEKLRKKLKTAQQRCRRQERQLEKLKEVVHFQKEKDDVSERGYVILPNDYFEIVEVPA [D61M] | 0.207
16 | MVQSCSAYGCKNRYDKDKPVSFHKFPLTRPSLCKEWEAAVRRKNFKPTKYSSICSEHFTPGCFKRECNNKLLKENAVPTIFLCTEPHDKKEDLLEPQEQLPPPPLPPPVSQVDAAIGLLMPPLQTPVNLSVFCDHNYTVEDTMHQRKRIHQLEQQVEKLRKKLKTAQQRCRRQERQLEKLKEVVHFQKEKDDVSERGYVILPNDYFEIVEVPA [D61G] | 0.219
17 | MVQSCSAYGCKNRYDKDKPVSFHKFPLTRPSLCKEWEAAVRRKNFKPTKYSSICSEHFTPWCFKRECNNKLLKENAVPTIFLCTEPHDKKEDLLEPQEQLPPPPLPPPVSQVDAAIGLLMPPLQTPVNLSVFCDHNYTVEDTMHQRKRIHQLEQQVEKLRKKLKTAQQRCRRQERQLEKLKEVVHFQKEKDDVSERGYVILPNDYFEIVEVPA [D61W] | 0.145
18 | MVQSCSAYGCKNRYDKDKPVSFHKFPLTRPSLCKEWEAAVRRKNFKPTKYSSICSEHFTPHCFKRECNNKLLKENAVPTIFLCTEPHDKKEDLLEPQEQLPPPPLPPPVSQVDAAIGLLMPPLQTPVNLSVFCDHNYTVEDTMHQRKRIHQLEQQVEKLRKKLKTAQQRCRRQERQLEKLKEVVHFQKEKDDVSERGYVILPNDYFEIVEVPA [D61H] | 0.228
19 | MVQSCSAYGCKNRYDKDKPVSFHKFPLTRPSLCKEWEAAVRRKNFKPTKYSSICSEHFTPKCFKRECNNKLLKENAVPTIFLCTEPHDKKEDLLEPQEQLPPPPLPPPVSQVDAAIGLLMPPLQTPVNLSVFCDHNYTVEDTMHQRKRIHQLEQQVEKLRKKLKTAQQRCRRQERQLEKLKEVVHFQKEKDDVSERGYVILPNDYFEIVEVPA [D61K] | 0.217
20 | MVQSCSAYGCKNRYDKDKPVSFHKFPLTRPSLCKEWEAAVRRKNFKPTKYSSICSEHFTPSCFKRECNNKLLKENAVPTIFLCTEPHDKKEDLLEPQEQLPPPPLPPPVSQVDAAIGLLMPPLQTPVNLSVFCDHNYTVEDTMHQRKRIHQLEQQVEKLRKKLKTAQQRCRRQERQLEKLKEVVHFQKEKDDVSERGYVILPNDYFEIVEVPA [D61S] | 0.312
21 | MVQSCSAYGCKNRYDKDKPVSFHKFPLTRPSLCKEWEAAVRRKNFKPTKYSSICSEHFTPQCFKRECNNKLLKENAVPTIFLCTEPHDKKEDLLEPQEQLPPPPLPPPVSQVDAAIGLLMPPLQTPVNLSVFCDHNYTVEDTMHQRKRIHQLEQQVEKLRKKLKTAQQRCRRQERQLEKLKEVVHFQKEKDDVSERGYVILPNDYFEIVEVPA [D61Q] | 0.282
22 | MVQSCSAYGCKNRYDKDKPVSFHKFPLTRPSLCKEWEAAVRRKNFKPTKYSSICSEHFTPICFKRECNNKLLKENAVPTIFLCTEPHDKKEDLLEPQEQLPPPPLPPPVSQVDAAIGLLMPPLQTPVNLSVFCDHNYTVEDTMHQRKRIHQLEQQVEKLRKKLKTAQQRCRRQERQLEKLKEVVHFQKEKDDVSERGYVILPNDYFEIVEVPA [D61I] | 0.133
23 | MVQSCSAYGCKNRYDKDKPVSFHKFPLTRPSLCKEWEAAVRRKNFKPTKYSSICSEHFTPLCFKRECNNKLLKENAVPTIFLCTEPHDKKEDLLEPQEQLPPPPLPPPVSQVDAAIGLLMPPLQTPVNLSVFCDHNYTVEDTMHQRKRIHQLEQQVEKLRKKLKTAQQRCRRQERQLEKLKEVVHFQKEKDDVSERGYVILPNDYFEIVEVPA [D61L] | 0.209
24 | MVQSCSAYGCKNRYDKDKPVSFHKFPLTRPSLCKEWEAAVRRKNFKPTKYSSICSEHFTPVCFKRECNNKLLKENAVPTIFLCTEPHDKKEDLLEPQEQLPPPPLPPPVSQVDAAIGLLMPPLQTPVNLSVFCDHNYTVEDTMHQRKRIHQLEQQVEKLRKKLKTAQQRCRRQERQLEKLKEVVHFQKEKDDVSERGYVILPNDYFEIVEVPA [D61V] | 0.101
25 | MVQSCSAYGCKNRYDKDKPVSFHKFPLTRPSLCKEWEAAVRRKNFKPTKYSSICSEHFTPCCFKRECNNKLLKENAVPTIFLCTEPHDKKEDLLEPQEQLPPPPLPPPVSQVDAAIGLLMPPLQTPVNLSVFCDHNYTVEDTMHQRKRIHQLEQQVEKLRKKLKTAQQRCRRQERQLEKLKEVVHFQKEKDDVSERGYVILPNDYFEIVEVPA [D61C] | 0.198
26 | MVQSCSAYGCKNRYDKDKPVSFHKFPLTRPSLCKEWEAAVRRKNFKPTKYSSICSEHFTPYCFKRECNNKLLKENAVPTIFLCTEPHDKKEDLLEPQEQLPPPPLPPPVSQVDAAIGLLMPPLQTPVNLSVFCDHNYTVEDTMHQRKRIHQLEQQVEKLRKKLKTAQQRCRRQERQLEKLKEVVHFQKEKDDVSERGYVILPNDYFEIVEVPA [D61Y] | 0.127
27 | MVQSCSAYGCKNRYDKDKPVSFHKFPLTRPSLCKEWEAAVRRKNFKPTKYSSICSEHFTPRCFKRECNNKLLKENAVPTIFLCTEPHDKKEDLLEPQEQLPPPPLPPPVSQVDAAIGLLMPPLQTPVNLSVFCDHNYTVEDTMHQRKRIHQLEQQVEKLRKKLKTAQQRCRRQERQLEKLKEVVHFQKEKDDVSERGYVILPNDYFEIVEVPA [D61R] | 0.22
28 | MVQSCSAYGCKNRYDKDKPVSFHKFPLTRPSLCKEWEAAVRRKNFKPTKYSSICSEHFTPTCFKRECNNKLLKENAVPTIFLCTEPHDKKEDLLEPQEQLPPPPLPPPVSQVDAAIGLLMPPLQTPVNLSVFCDHNYTVEDTMHQRKRIHQLEQQVEKLRKKLKTAQQRCRRQERQLEKLKEVVHFQKEKDDVSERGYVILPNDYFEIVEVPA [D61T] | 0.368
